Test results: patent US20160303245A1 (UNIVERSITY OF COPENHAGEN, published 2016)
Where two headings read alike, the source gives them in different places. *1 amine or outer side, *2 acyl side, *3 side chain or, on linkers, in order; H or OH if unused. Where no end group is shown, it is not given here. The star is where a group is joined. γGlu = O=C(O)[C@H](CCC(=O)[*:2])N[*:1]; Stearoyl = CCCCCCCCCCCCCCCCCC(=O)*; Lauroyl = CCCCCCCCCCCC(=O)*; NPEG4 = not defined here; Ava = NCCCCC(=O)O; GABA = NCCCC(=O)O

What was measured:
PSD-95 PDZ1-2 [1] = target: T1, PSD-95 PDZ1-2 (UniProt P78352 61-249, limits assumed); test: FP competition vs dimeric fluorescent probe, TBS
T1 construct: domain: PDZ1-2; also called PDZ1-2 of PSD-95
T1 sequence (P78352 61-249 limits assumed): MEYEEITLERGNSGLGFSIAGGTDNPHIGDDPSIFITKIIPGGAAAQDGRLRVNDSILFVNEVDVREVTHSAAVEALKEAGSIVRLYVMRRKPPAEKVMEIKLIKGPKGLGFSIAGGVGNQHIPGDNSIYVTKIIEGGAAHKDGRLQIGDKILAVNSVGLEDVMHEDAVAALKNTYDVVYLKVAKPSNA

PSD-95 PDZ1-2 [2] = target: T1, PSD-95 PDZ1-2; test: FP competition, TBS + 1% HSA, corrected for fu (free ligand)
Protocol: (§1) The FP values were fitted to a one site competition (variable slope) model in GraphPad Prism. […] The modified FP assay was conducted as described above with 1% HSA in the assay.

Human Serum Albumin [3] = target: T2, Human Serum Albumin (human, UniProt P02768 25-609); test: calculated from KD at 588 µM HSA (equation 2)
T2 construct: Bought reagent; also called HSA
Protocol: (§2) The assay kit consisted of prefilled wells with increasing concentrations of immobilized HSA as well as two control wells without HSA. The HSA had been immobilized in a random fashion to ensure that all binding sites on HSA were available. To conduct the assay, the wells were incubated with a known concentration of the tested compounds, and the unbound amount of compound was quantified using analytical RP-HPLC (C8 column). The fraction of unbound drug (fᵤ) for each data point was calculated from the RP-HPLC data by comparison to a control sample without HSA.

Human Serum Albumin [4] = target: T2, Human Serum Albumin; test: calculated from KD(HSA) at 150 µM HSA (equation 2)
PSD-95 PDZ1-2 [5] = target: T1, PSD-95 PDZ1-2; test: FP competition vs dimeric fluorescent probe, TBS + 1% HSA (apparent)
Human Serum Albumin [6] = target: T2, Human Serum Albumin; test: Transil XL HSA binding kit (immobilized HSA), unbound compound by RP-HPLC
Protocol: as §2

PSD-95 PDZ1-2 [7] = target: T1, PSD-95 PDZ1-2; test: FP competition, TBS + 1% HSA
Protocol: as §1
The synthesized FA-linked dimeric ligands were evaluated for their affinity to PSD-95 PDZ1-2 in the FP assay.

PSD-95 PDZ1-2 [8] = target: T1, PSD-95 PDZ1-2; test: FP competition, TBS + 1% HSA, corrected for fu (free ligand); remark: listed apart in the source
PSD-95 PDZ1-2 [9] = target: T1, PSD-95 PDZ1-2; test: FP competition vs dimeric fluorescent probe, TBS; remark: listed apart in the source
PSD-95 PDZ1-2 [10] = target: T1, PSD-95 PDZ1-2; test: FP competition vs dimeric fluorescent probe, TBS + 1% HSA (apparent); remark: listed apart in the source
Protocol: as §1

Human Serum Albumin [11] = target: T2, Human Serum Albumin; test: Transil XL HSA binding kit (immobilized HSA), unbound compound by RP-HPLC; remark: listed apart in the source
Protocol: as §2

Human Serum Albumin [12] = target: T2, Human Serum Albumin; test: calculated from KD(HSA) at 150 µM HSA (equation 2); remark: listed apart in the source

| Binder | Ki (PSD-95 PDZ1-2 [1]) | Ki (PSD-95 PDZ1-2 [2]) | fb (%), fraction bound to HSA (Human Serum Albumin [3]) | fu (%), fraction unbound (Human Serum Albumin [4]) | Ki (PSD-95 PDZ1-2 [5]) | Kd (Human Serum Albumin [6]) | fold lower apparent affinity than the dimeric ligands linked to the shorter FAs (C12:0 or C11:0-COOH) (PSD-95 PDZ1-2 [7]) | Ki (PSD-95 PDZ1-2 [8]) | Ki (PSD-95 PDZ1-2 [9]) | Ki (PSD-95 PDZ1-2 [10]) | Kd (Human Serum Albumin [11]) | fu (%), fraction unbound (Human Serum Albumin [12]) | fold affinity loss in TBS+HSA (PSD-95 PDZ1-2 [7]) |
| --- | --- | --- | --- | --- | --- | --- | --- | --- | --- | --- | --- | --- | --- |
| IETAV (also: dimer: two peptides joined by a linker, no fatty acid, also called dimeric ligand UCCB01-125) [UCCB01-125] | 14.3 nM | 4.1 nM | 77.6% | 50.7% | 9.7 nM | 154000 nM | – | – | – | – | – | – | – |
| {Stearoyl-γGlu-NPEG4}-IETAV (not fully specified; reading uncertain; also: dimer: two chains joined at N-termini through NPEG4, Synthetic dimer NPEG4(IETAV)2 with fatty acid on the linker nitrogen; also called compound 7) [FA-linked dimeric ligand 7] | 17 nM | 59.1 nM | 98.9% | 4.3% | 1390 nM | 6800 nM | > 50 fold | 59.1 nM | 17 nM | 1390 nM | 6800 nM | 4.3% | 50 fold |
| IETAV (not fully specified; also: dimer: N-termini of two peptides joined through NPEG4 linker, Synthetic dimer NPEG4(IETAV)2 with fatty acid on the linker nitrogen; also called compound 9) [FA-linked dimeric ligand 9] | 20.5 nM | 2.6 nM | 91.4% | 27.1% | 13.4 nM | 55700 nM | – | – | – | – | – | – | – |
| {Lauroyl-GABA-NPEG4}-IETAV (not fully specified; reading uncertain; also: dimer: two chains joined at N-termini through NPEG4, Synthetic dimer NPEG4(IETAV)2 with fatty acid on the linker nitrogen; also called compound 1) [FA-linked dimeric ligand 1] | 13.6 nM | 3.2 nM | 95.7% | 15.1% | 27.2 nM | 26600 nM | – | – | – | – | – | – | – |
| {Stearoyl-GABA-NPEG4}-IETDV (not fully specified; reading uncertain; also: dimer: two chains joined at N-termini through NPEG4, IETDV analogue of compound 3, synthesized analogously to 1-12; also called compound 13) [FA-linked dimeric ligand 13] | – | – | – | – | – | – | – | – | – | – | 83000 nM | 35.6% | – |
| {Stearoyl-Ava-NPEG4}-IETAV (not fully specified; reading uncertain; also: dimer: two chains joined at N-termini through NPEG4, linker taken from rows above (blank cell), Synthetic dimer NPEG4(IETAV)2 with fatty acid on the linker nitrogen; also called compound 11) [FA-linked dimeric ligand 11] | 26.5 nM | 16.8 nM | 97.9% | 7.8% | 1890 nM | 12700 nM | > 50 fold | – | – | – | – | – | 50 fold |
| {C11:0‑COOH acyl-GABA-NPEG4}-IETAV (not fully specified; reading uncertain; also: dimer: two chains joined at N-termini through NPEG4, linker taken from row above (blank cell), Synthetic dimer NPEG4(IETAV)2 with fatty acid on the linker nitrogen; also called compound 2) [FA-linked dimeric ligand 2] | 15.4 nM | 5.5 nM | 92.3% | 24.7% | 27.9 nM | 49300 nM | – | – | – | – | – | – | – |
| {Lauroyl-γGlu-NPEG4}-IETAV (not fully specified; reading uncertain; also: dimer: two chains joined at N-termini through NPEG4, Synthetic dimer NPEG4(IETAV)2 with fatty acid on the linker nitrogen; also called compound 5) [FA-linked dimeric ligand 5] | 30.2 nM | 2.4 nM | 95.8% | 14.7% | 24 nM | 25800 nM | – | – | – | – | – | – | – |
| {C11:0‑COOH acyl-γGlu-NPEG4}-IETAV (not fully specified; reading uncertain; also: dimer: two chains joined at N-termini through NPEG4, linker taken from row above (blank cell), Synthetic dimer NPEG4(IETAV)2 with fatty acid on the linker nitrogen; also called compound 6) [FA-linked dimeric ligand 6] | 33.7 nM | 7 nM | 90.1% | 30.1% | 26.4 nM | 64600 nM | – | – | – | – | – | – | – |

Further binders by falling Ki (PSD-95 PDZ1-2 [1]), results first:

| Ki (PSD-95 PDZ1-2 [1]) | Ki (PSD-95 PDZ1-2 [2]) | fb (%), fraction bound to HSA (Human Serum Albumin [3]) | fu (%), fraction unbound (Human Serum Albumin [4]) | Ki (PSD-95 PDZ1-2 [5]) | Kd (Human Serum Albumin [6]) | fold lower apparent affinity than the dimeric ligands linked to the shorter FAs (C12:0 or C11:0-COOH) (PSD-95 PDZ1-2 [7]) | Ki (PSD-95 PDZ1-2 [8]) | Ki (PSD-95 PDZ1-2 [9]) | Ki (PSD-95 PDZ1-2 [10]) | Kd (Human Serum Albumin [11]) | fu (%), fraction unbound (Human Serum Albumin [12]) | fold affinity loss in TBS+HSA (PSD-95 PDZ1-2 [7]) | Binder |
| --- | --- | --- | --- | --- | --- | --- | --- | --- | --- | --- | --- | --- | --- |
| 13.9 nM | 10.9 nM | 71% | 61.5% | 18.5 nM | 240000 nM | – | – | – | – | – | – | – | {C11:0‑COOH acyl-Ava-NPEG4}-IETAV (not fully specified; reading uncertain; also: dimer: two chains joined at N-termini through NPEG4, linker taken from row above (blank cell), Synthetic dimer NPEG4(IETAV)2 with fatty acid on the linker nitrogen; also called compound 10) [FA-linked dimeric ligand 10] |
| 11.5 nM | 250 nM | 96.2% | 8.3% | 2930 nM | 23500 nM | > 50 fold | – | – | – | – | – | – | {C17:0‑COOH acyl-Ava-NPEG4}-IETAV (not fully specified; reading uncertain; also: dimer: two chains joined at N-termini through NPEG4, linker taken from rows above (blank cell), Synthetic dimer NPEG4(IETAV)2 with fatty acid on the linker nitrogen; also called compound 12) [FA-linked dimeric ligand 12] |
| 11.4 nM | 654 nM | 96.5% | 11.5% | 5720 nM | 19400 nM | > 50 fold | 654 nM | 11.4 nM | 5720 nM | 19400 nM | 11.5% | – | {C17:0‑COOH acyl-GABA-NPEG4}-IETAV (not fully specified; reading uncertain; also: dimer: two chains joined at N-termini through NPEG4, Synthetic dimer NPEG4(IETAV)2 with fatty acid on the linker nitrogen; also called compound 4) [FA-linked dimeric ligand 4] |
| 11.1 nM | 57.2 nM | 99.2% | 3.1% | 1890 nM | 4800 nM | > 50 fold | 57.2 nM | 11.1 nM | 1890 nM | 4800 nM | 3.1% | 50 fold | {Stearoyl-GABA-NPEG4}-IETAV (not fully specified; reading uncertain; also: dimer: two chains joined at N-termini through NPEG4, Synthetic dimer NPEG4(IETAV)2 with fatty acid on the linker nitrogen; also called compound 3) [FA-linked dimeric ligand 3] |
| 9.2 nM | 669 nM | 94.5% | 18.6% | 3590 nM | 34300 nM | > 50 fold | – | – | – | – | – | – | {C17:0‑COOH acyl-γGlu-NPEG4}-IETAV (not fully specified; reading uncertain; also: dimer: two chains joined at N-termini through NPEG4, linker taken from rows above (blank cell), Synthetic dimer NPEG4(IETAV)2 with fatty acid on the linker nitrogen; also called compound 8) [FA-linked dimeric ligand 8] |
